Test results taken from patent US20090291083A1, “BARB4 TARGET, ANTIBODY DESIGNATED BARB4, BARB4 RELATED ANTIBODIES, AND METHODS OF MAKING AND USING SAME” (PATRYS LIMITED, priority 2008, published 2009).

Legend:
[1] = tested on: Healthy Tissues: Pancreas; assay: Immunohistochemistry (IHC) with biotinylated BARB4 on healthy tissue; assay type: binding, human; conditions: glandular, positive/negative
Method: (§1) Immunohistochemistry with human IgG on human tissue naturally results in high background staining. Accordingly, BARB4 was labeled with biotin to reduce background.
(§2) BARB4 antibody and an unrelated commercial IgG control (Chrompure IgG, Dianova) where labelled with “EZ-Link Maleimide-PEO Solid Phase Biotinylation Kit” from Pierce (Cat-# 21930) and Immunohistochemistry was initiated on different tumor tissue. Parrafin embedded tissue was first deparaffinized by treatment with Xylene 1 for 5 min, Xylene 2 for 5 min, followed by 100% Ethanol 1 for 5 min, 100% Ethanol 2 for 5 min, 70 ml Methanol+500 μl H2O2 for 7 min, 90% Ethanol 1 for 3 min, 90% Ethanol 2 for 3 min, 80% Ethanol 1 for 3 min, 80% Ethanol 2 for 3 min, 70% Ethanol 1 for 3 min, 70% Ethanol 2 for 3 min, and then washed three times with distilled H2O. (1 and 2 mean that the tissues were treated 2 times with the same alcohol, one after the another, in two different tanks.) Tissue was then heated in Citric acid, pH 5,5 in a water-bath at 99.9° C. for 20 min, placed in Tris/NaCl (Tris, 0.6 g/l and NaCl 8.1 g/l, pH 7.4) for 5 min, block with 0.5% BSA in PBS for 60 min, and then washed three times with Tris/NaCl (Tris, 0.6 g/l and NaCl 8.1 g/l, pH 7.4). Primary antibody (150 μl per microscope slide) was added, or a negative control biotinylated isotype matched control human antibody (Chrompure IgG, Dianova, Germany) or a positive controlanti-cytokeratin antibody, and incubated for 30 min in a humidified chamber at 37° C. Tissue was washed three times with Tris/NaCl (Tris, 0.6 g/l and NaCl 8.1 g/l, pH 7.4). Secondary antibody: (150 […]) was subsequently added and incubated for 30 min in a humidified chamber at room temperature (for biotinylated antibodies: NeurtrAvidin 1:100 in PBS), washed three times with Tris/NaCl (Tris, 0.6 g/l and NaCl 8.1 g/l, pH7.4), placed in PBS for 10 min. Tiusse was subsequently incubated with diaminobenzidine (0.05%)-hydrogen peroxide (0.02%) (150 μl per microscope slide) (Sigma, Taufkirchen, München, Germany) for 10 min, washed three times with H2O, washed once with distilled H2O, incubated with hematoxylin/eosin for 5 min, and placed under running tap water 10-15 min. Tissue was then washed again with distilled H2O, and the slides covered with Aquatex (Merck Bioscience).

Healthy Tissues: Lung = assay: as above; assay type: binding, human; conditions: glandular, alveolar, positive/negative
Method: as §1, §2

Healthy Tissues: Stomach = assay: as above; assay type: binding, human; conditions: glandular, positive/negative
Method: as §1, §2

Healthy Tissues: Breast = assay: as above; assay type: binding, human; conditions: glandular, positive/negative
Method: as §1, §2

[2] = tested on: Healthy Tissues: Esophagus; assay: as above; assay type: binding, human; conditions: epithelial, positive/negative
Method: as §1, §2

Healthy Tissues: Colon = assay: as above; assay type: binding, human; conditions: glandular, positive/negative
Method: as §1, §2

A549 = assay: FACS analysis of cell surface binding, BARB4 and commercial TAF 15 antibody; design: species or system human; conditions: BARB4 100 ug/ml, TAF 15 antibody 25 μg/ml
Method: (§3) To further validate BARB4 target protein TAF 15, BARB4 and a commercial TAF 15 antibody (anti-human TAFII p68, Santa Cruz Biotechnology, sc-81121) were analyzed for binding to BxPC-3, HEK 293, A549 and HeLa cell lines. In brief, cells were trypsinized with cell dissociation solution (Sigma C5789), resuspended in complete medium (RPMI 1640, PAA, E15-039, 10% Fetal bovine serum, PAA, A15-151 and 1% Glutamine, PAA, M11-004) and set on 2×10^5/ml. After 30 minutes on ice, cells were dispersed at 1 ml per FACS-tube and washed once with ice-cold PBS by centrifugation with 500 g and 4° C. Staining was done with BARB4 (100 ug/ml) or the commercial TAF 15 (25 μg/ml) IgG antibodies, control IgGs (IgG lambda, or mouse IgG), or without antibody in 200 μl PBS. Cells were incubated with 25 μg/ml antibody in 100 μl for 30 minutes on ice, then washed with ice cold PBS and secondary antibody (anti mouse IgG-FITC, dianova 115-095-008) was applied at a dilution of 1:50 in 200 μl per tube. After another 30 minutes of incubation in the dark, cells were washed twice with PBS and analyzed by FACS. […] BARB4 target protein TAF 15 validation was then analyzed by immunoprecipitation of MKNcell extracts with BARB4 and subsequent Western blotting with either BARB4 or anti-TAF 15 antibodies (Biomol, A300-308A; or Aviva, ARP30111_T100).

BxPC-3 = assay: as above; design: species or system human; conditions: BARB4 100 ug/ml, TAF 15 antibody 25 μg/ml
Method: as §3

B1: BARB4: human IgG antibody produced by hybridoma DSMZ Deposit No. DSM ACC2876; heavy chain SEQ ID NOs:1, 3, 5, 7, light chain SEQ ID NO:9 (antibody, V domains shown)
VH: QVQLVESGGGVVQPGRSLRLSCAASGFRFTTHGMHWVRQAPGKGLEWVAVISYNGRNKYYADYVNGRFTISRDDSRDTVFLQMNSLRPEDTAMYYCAKVRGDGYGDYGYFDYWGHGTLVSVSS
VL: QSALTQPRSVSGSPGQSVTISCTGTYNYVSWYQQHPGKAPKLMIFDVSRRSSGVPDRFSGSKSGNTASLTISGLQAEDEADYYCCSYGGTYLYVFGTGTTVTVLGQ
[1]
  Barb 4 +/−: 0/2
Healthy Tissues: Lung
  Barb 4 +/−: 0/3
Healthy Tissues: Stomach
  Barb 4 +/−: 0/3
Healthy Tissues: Breast
  Barb 4 +/−: 0/2
[2]
  Barb 4 +/−: 0/1
Healthy Tissues: Colon
  Barb 4 +/−: 0/3
A549
  FACS binding to the cell surface: binding
BxPC-3
  FACS binding to the cell surface: binding
